{"source": "paper PMC7062162", "biological_target": "HA 2NΔ peptide-DR1 complex (human | influenza A virus) (UniProt P03437)", "data": [{"substance": "soluble recombinant HLA-DM (DMA*0101/DMB*0101) (complex)", "values": [{"measurement": "kcat, fold change against the full HA peptide complex", "value": 5, "unit": "fold"}]}]}
